Measured values from patent publication US20180291082A1 (IMMATICS BIOTECHNOLOGIES, published 2018).

Tests used:
Test in all cases: UV-ligand exchange, anti-b2m ELISA; exchange yield grade (+ >10%, ++ >20%, +++ >50, ++++ >75%)
HLA-A*24:02 = biological target: T1, HLA-A*24:02 (human)
T1 construct: Peptide-receptive MHC monomer made by UV cleavage of a UV-sensitive peptide
In short: (§1)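 Binding capacity is graded by how much β2m-containing, stabilised complex survives UV-induced loss of the placeholder peptide. An anti-β2m sandwich ELISA on streptavidin capture, calibrated with refolded monomers (15-500 ng/ml), measures this.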

HLA-B*07:02 = biological target: T2, HLA-B*07:02 (human)
T2 construct: Peptide-receptive MHC monomer made by UV cleavage of a UV-sensitive peptide
In short: as §1

HLA-A*02:01 = biological target: T3, HLA-A*02:01 (human)
T3 construct: Peptide-receptive MHC monomer made by UV cleavage of a UV-sensitive peptide
In short: as §1

Row | Binder | peptide exchange yield (HLA-A*24:02) [%] | peptide exchange yield (HLA-A*02:01) [%] | other results
1 | MYAKEFDLL | 50 to 75 |  | 
2 | KYLSIPAVFF | > 75 |  | 
3 | HDPDVGSNSL |  |  | peptide exchange yield (HLA-B*07:02): 20 to 50%
4 | FLNQIYTQL |  | > 75 | 
5 | VWAKILSAF | 50 to 75 |  | 
6 | MVPSAGQLALF |  |  | peptide exchange yield (HLA-B*07:02): 20 to 50%
7 | ALFPERITV |  | > 75 | 
8 | GLTGVIMTI |  | > 75 | 
9 | SPMWHVQQL |  |  | peptide exchange yield (HLA-B*07:02): 50 to 75%
10 | VLITGLPLI |  | > 75 | 
11 | RLFGLFLNNV |  | > 75 | 
12 | KIDDIWNLEV |  | 50 to 75 | 
13 | PYASLASELF | > 75 |  | 
14 | SYTKVEARL | 50 to 75 |  | 
15 | KLHEIYIQA |  | > 75 | 
16 | VPSLQRLML |  |  | peptide exchange yield (HLA-B*07:02): 50 to 75%
17 | RLWQIQHHL |  | 50 to 75 | 
18 | VMLNSNVLL |  | > 75 | 
19 | KPAHYPLIAL |  |  | peptide exchange yield (HLA-B*07:02): 50 to 75%
20 | KYLSIPTVF | > 75 |  | 
21 | KYLSIPAVF | > 75 |  | 
22 | SLQDTKITL |  | 50 to 75 | 

Row | Binder | peptide exchange yield (HLA-A*24:02) [%] | peptide exchange yield (HLA-A*02:01) [%] | other results
23 | TPIAKVSEL |  |  | peptide exchange yield (HLA-B*07:02): 50 to 75%
24 | VIAPIISNF | 50 to 75 |  | 
25 | VYGDGHYLTF | 50 to 75 |  | 
26 | KLLDEVTYL |  | 50 to 75 | 
27 | YLLPSVVLL |  | > 75 | 
28 | RQYLAINQI | 10 to 20 |  | 
29 | ALAAELNQL |  | 50 to 75 | 
30 | RPAVGHSGL |  |  | peptide exchange yield (HLA-B*07:02): 20 to 50%
31 | TYISKTIAL | 50 to 75 |  | 
32 | SYIEKVRFL | 50 to 75 |  | 
33 | TYLTGRQF | 20 to 50 |  | 
34 | VFLNQIYTQL | 20 to 50 |  | 
35 | LLMTSLTES |  | 50 to 75 | 
36 | KMILKMVQL |  | 10 to 20 | 
37 | YFEEAANFL | 20 to 50 |  | 
38 | LVLDYSKDYNHW | 10 to 20 |  | 
39 | KMMALVAEL |  | > 75 | 
40 | SFDSNLLSF | 10 to 20 |  | 
41 | YVSSGEMMV |  | 50 to 75 | 
42 | ISTPSEVSTPL |  |  | peptide exchange yield (HLA-B*07:02): 20 to 50%
43 | APSGTRVVQVL |  |  | peptide exchange yield (HLA-B*07:02): 20 to 50%
44 | APKLFAVAF |  |  | peptide exchange yield (HLA-B*07:02): 50 to 75%

Row | Binder | peptide exchange yield (HLA-A*24:02) [%] | peptide exchange yield (HLA-A*02:01) [%] | other results
45 | LPALPQQLI |  |  | peptide exchange yield (HLA-B*07:02): 50 to 75%
46 | EYNNIQHLF | 50 to 75 |  | 
47 | KLYGMPTDFGF | 20 to 50 |  | 
48 | SQTGFVVLV |  | 20 to 50 | 
49 | RLASRPLLL |  | 50 to 75 | 
50 | NFLPPIIARF | > 75 |  | 
51 | TFQDKTLNF | 50 to 75 |  | 
52 | KYLSLSNSF | > 75 |  | 
53 | IPTDKLLVI |  |  | peptide exchange yield (HLA-B*07:02): 20 to 50%
54 | YLPPTDPRMSV |  | > 75 | 
55 | YPSEVEHMF |  |  | peptide exchange yield (HLA-B*07:02): 20 to 50%
56 | KFLDSNIKF | 50 to 75 |  | 
57 | HPIETLVDIF |  |  | peptide exchange yield (HLA-B*07:02): 20 to 50%
58 | GLPDFVKEL |  | > 75 | 
59 | YQDSWFQQL |  | 50 to 75 | 
60 | ELMPRVYTL |  | 50 to 75 | 
61 | IYGPKYIHPSF | > 75 |  | 
62 | LPDGSRVEL |  |  | peptide exchange yield (HLA-B*07:02): 20 to 50%
63 | FPTEVTPHAF |  |  | peptide exchange yield (HLA-B*07:02): 20 to 50%
64 | SPLRGGSSL |  |  | peptide exchange yield (HLA-B*07:02): 20 to 50%
65 | GLMTIVTSL |  | > 75 | 
66 | IFINLSPEF | > 75 |  | 
